According to patent US11473073B2, “Aminopeptidases for protein hydrolyzates” (DUPONT NUTRITION BIOSCIENCES APS, priority 2015, dated 2022):

How the values were obtained:
[1] = tested on: peptide WHWLQLKPGQPMY (SEQ ID NO:26); conditions: as described by Blinkovsky et al., Biochimica et Biophysica Acta 1480 (2000) 171-181; cited from earlier work
[2] = tested on: peptide WHWLQLKPGQPMY (SEQ ID NO:26); assay: Hydrolysis of proline containing peptide, LC-MS; type: biochemical; conditions: peptide 1 mg/mL, aminopeptidase 1 ug/mL, CPB-Buffer, 55° C.; FIG. 5-7
Method: The peptide […] (SEQ ID NO:26) was hydrolysed with TRI03 and TRI035. The peptide (1 mg/mL) was incubated with 1 ug/mL of the aminopeptidase in 20 mM CPB-Buffer (20 mM Citric acid, 20 mM Phosphate. 20 mM Boric acid) at 55° C. Aliquots (50 μL) were stopped with 50 rel 5% TFA at the indicated time points and subjected to LC-MS analysis.
Capillary LC-MS/MS analyses were performed using an Agilent 1100 LC system (Agilent Technologies) interfaced to a LTQ Orbitrap Classic hybrid mass spectrometer (Thermo Scientific, Bremen, Germany). Samples were loaded onto a 15 cm Phenomenix Jupiter 4μ Proteo 90A, C4 analytical column. Separation was performed at a flow rate of 16 μL/min using a 10 min gradient of 0-40% Solvent B H2O/CH3CN/HCOOH (50/950/0.65 v/v/v) into the IONMAX® ion source (Thermo Scientific, San Jose). The LTQ Orbitrap Classic instrument was operated in a data-dependent MS/MS mode. The peptide masses were measured by the Orbitrap (MS scans were obtained with a resolution of 60 000 at m/z 400), and up to 2 of the most intense peptide m/z were selected and subjected to fragmentation using CID in the linear ion trap (LTQ). Dynamic exclusion was enabled with a list size of 500 masses, duration of 40 s, and an exclusion mass width of ±10 ppm relative to masses on the list.
The RAW files were accessed with the program Skyline 2.6.0.7176 (MacLean, B., et al., “Skyline: an open source document editor for creating and analyzing targeted proteomics experiments”, Bioinformatics, 2010, 26(7): p. 966-8) which uses the MS1 intensities to build chromatograms (Schilling, B., et al., “Platform-independent and label-free quantitation of proteomic data using MS1 extracted ion chromatograms in skyline: application to protein acetylation and phosphorylation”, Mol Cell Proteomics, 2012. 11(5): p. 202-14). The precursor isotopic import filter was set to a count of three, (M, M+1, and M+2) at a resolution of 60,000 and the most intense charge state was used. Peptide sequences of the substrate as well as cleavage products were typed into Skyline and intensities were calculated in each sample. […]

B1: Aspergillus oryzae PepN 2: Aspergillus oryzae PepN 2 described by A. M. Blinkovsky et al., Biochimica et Biophysica Acta 1480 (2000) 171-181 (protein)
chain: RALVSPDEFPEDIQLEDLLEGSQQLEDFAYAYPERNRVFGGKAHDDTVNYLYEELKKTGYYDVYKQPQVHLWSNADQTLKVGDEEIEAKTMTYSPSVEVTADVAVVKNLGCSEADYPSDVEGKVALIKRGECPFGDKSVLAAKAKAAASIVYNNVAGSMAGTLGAAQSDKGPYSAIVGISLEDGQKLIKLAEAGSVSVDLWVDSKQENRTTYNVVAQTKGGDPNNVVALGGHTDSVEAGPGINDDGSGIISNLVIAKALTQYSVKNAVRFLFWTAEEFGLLGSNYYVSHLNATELNKIRLYLNFDMIASPNYALMIYDGDGSAFNQSGPAGSAQIEKLFEDYYDSIDLPHIPTQFDGRSDYEAFILNGIPSGGLFTGAEGIMSEENASRWGGQAGVAYDANYHAAGDNMTNLNHEAFLINSKATAFAVATYANDLSSIPKRNTTSSLHRRARTMRPFGKRAPKTHAHVSGSGCWHSQVEA
- hydrolysis of X-Pro bonds including those of WHWLQLKPGQPMY [1]: does not hydrolyze
- hydrolysis of WHWLQLKPGQPMY to KPGQPMY and further down to QPMY [2]: cleaves the peptide down to QPMY
